Results: paper PMC6572678, “Bulged and Canonical G-Quadruplex Conformations Determine NDPK Binding Specificity”

T1: ZmNDPK1 (nucleoside diphosphate kinase 1, homolog of human NM23-H2) (Zea mays, UniProt B4FK49 1-149)
T1 sequence: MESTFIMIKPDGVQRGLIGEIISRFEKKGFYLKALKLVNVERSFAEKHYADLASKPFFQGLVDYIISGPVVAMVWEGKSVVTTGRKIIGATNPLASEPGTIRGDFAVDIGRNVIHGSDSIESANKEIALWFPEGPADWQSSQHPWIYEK


Columns and labels:
[1] = molecular target: T1, ZmNDPK1 (nucleoside diphosphate kinase …); experiment: filter binding; 20 mM KCl; Filter binding: oligos annealed in 10 mM TBA phosphate pH 7.5 + 20 mM KCl, 60 min incubation; competition 1 nM FAM probe, 100 nM competitor, 5 nM protein. FRET: 10 mM TBA pH 7.5 + 100 mM KCl or LiCl, 1 h at 4 °C, 0-1000 nM protein; conditions: protein: recombinant, chain copies: 6, label: 5' FAM (Kd)
[2] = molecular target: T1, ZmNDPK1 (nucleoside diphosphate kinase …); experiment: competition; 100-fold excess vs hex4_A5U, 20 mM KCl; Filter binding: oligos annealed in 10 mM TBA phosphate pH 7.5 + 20 mM KCl, 60 min incubation; competition 1 nM FAM probe, 100 nM competitor, 5 nM protein. FRET: 10 mM TBA pH 7.5 + 100 mM KCl or LiCl, 1 h at 4 °C, 0-1000 nM protein; conditions: protein: recombinant, chain copies: 6

Row | Binder | binding signal ([2]; bulged G4, parallel) [% competition] | binding signal ([2]; bulged G4, anti-h by CD) [% competition] | other results
1 | GGGTTTTGAAGGGATTATTAGGGAGGG (structured_DNA) [A5UAH (canonical; trim_AH)] |  |  | Kd ([1]; canonical G4, parallel): 14.4 nM; binding signal ([2]; label: 5' FAM (Kd), canonical G4, parallel): 77 % competition
2 | GGGTTTTGAATGGAGTATTAGGGAGGG (structured_DNA) [A5UBH] | 85 |  | 
3 | GGGTTTTGAATTGAGGAGGAGTTAGGG (structured_DNA) [A5UCF] | 62 |  | 
4 | GGGTTTTGAATTGAGGATGAGGTAGGG (structured_DNA) [A5UCG] |  |  | binding signal ([2]; bulged G4, mixed by CD): 36 % competition
5 | GGGTTTTGAATTGAGGATTAGGGAGGG (structured_DNA) [A5UCH] | 76 |  | 
6 | GGGTTTTGAATTTAGGAGTAGGGAGGG (structured_DNA) [A5UDH] | 77 |  | 
7 | GGGTTTTGAATTTATGAGGAGGGAGGG (structured_DNA) [A5UEH] | 81 |  | 
8 | GGGTTTTGAAGGGATGAGGATTTAGGG (structured_DNA) [A5UAE] |  |  | Kd ([1]; bulged G4, anti-h by CD): 194 nM; binding signal ([2]; label: 5' FAM (Kd), bulged G4, anti-h by CD): 16 % competition
9 | GGGTTTTGAAGGGAGGAGTATTTAGGG (structured_DNA) [A5UAD] | 73 |  | 
10 | GGGTTTTGAAGGGATTAGGAGTTAGGG (structured_DNA) [A5UAF] |  | 15 | 
11 | GGGTTTTGAAGGGATTATGAGGTAGGG (structured_DNA) [A5UAG] |  | 40 | 
12 | GGGTTTTGAATGGAGTAGGAGTTAGGG (structured_DNA) [A5UBF] |  | 23 | 
13 | GGGTTTTGAATGGAGTATGAGGTAGGG (structured_DNA) [A5UBG] |  | 50 | 
